Read-outs that look alike come from different tables or passages of the source. Some results are limits rather than exact numbers.

Results on 25 molecules are retold here after US20190194358A1 (ARIZONA BOARD OF REGENTS A BODY CORPORATE OF THE STATE OF …, published 2019).

Assay [1] concerns the target T1, transferrin (human, UniProt P02787 20-698).
T1 construct: also called TRF; pooled human transferrin (Sigma)
Nature of the assay: peptide microarray without organic prewash, Alexa 555 transferrin with Alexa 647 E. coli lysate; rank by the score of Example 2.

The target in assay [2] is T1, transferrin. As to the kind of experiment: SPR (Biacore T100), transferrin immobilised, steady-state response. Background: SPR reads the build-up and loss of mass on a sensor chip optically.
Description: Flow rates and contact times are adjusted as necessary to provide the surface concentration of target desired for the intended application, and may vary by target. In general, for evaluating whether binding occurs, it is preferable to immobilize a relatively large quantity of target, and higher flow rates and/or longer contact times may be used. For determining kinetics, it is preferable to limit the amount of target immobilized so as to minimize rebinding and avidity effects, and lower flow rates and/or contact times may be used.
Because the off rates for these polypeptides were very high, KD values were estimated by measuring steady-state response for at least five concentrations in a two-fold dilution series, each concentration tested in duplicate. For each experiment, response data were processed using a reference surface to correct for bulk refractive index changes and any non-specific binding. Data were also double referenced using responses from blank running buffer injections. […] Analytes were injected for 60 s at a flow rate of 30 μl/min. The antigen surfaces were regenerated with 30 s consecutive pulses of NaOH/NaCl (50 mM NaOH in 1M NaCl) and Glycine (10 mM glycine-HCl, pH 2.5).
Assay [3] concerns the target T1, transferrin. As to the kind of experiment: peptide microarray with organic prewash, Alexa 555 transferrin with Alexa 647 E. coli lysate; rank by the score of Example 2.
For assay [4], the target named is T2, Tumor Necrosis Factor-alpha (UniProt P01375 77-233).
T2 construct: Immobilised on pipette tips or SPR chips (amine coupling or biotin capture); also called TNF-α; TNF-alpha
Nature of the assay: SPR (Biacore A100), TNF-α captured, equilibrium response over a concentration series.
Protocol: (§1) Point-mutant libraries were prepared in 96-well stock plates From the stock plate, peptides were diluted to 50 μM concentration in Biacore HBS-EP buffer (GE Healthcare, Piscataway, N.J.) containing 1 mg/ml carboxymethyl-dextran (Sigma-Aldrich, St. Louis, Mo.) to reduce non-specific binding to the CM-5 SPR chip surface. TNF-αt was captured on a CM-5 chip surface at different capture levels on spots 1, 2, 4, and 5 across all four flow cells corresponding to a 40-200 RU range of predicted Rₘₐₓ binding responses. Spot 3 contained only immobilized neutravidin and served as a reference spot.
(§2) Purified point-mutant affinities were measured on the Biacore A100 using SPR equilibrium binding response across a series of peptide concentrations on an SPR chip with TNF-α captured as described above.

The target in assay [5] is T2, Tumor Necrosis Factor-alpha. As to the kind of experiment: SPR; reference TNF1 lead peptide.
Protocol: as §1, §2
Assay [6] has the same target. Nature of the assay: SPR (Biacore A100), TNF-α captured, equilibrium response over a concentration series. This is another data set of the same source.
Protocol: as §1, §2
Assay [7] shares this target. As to the kind of experiment: SPR; difference to the TNF1 lead peptide.
Protocol: as §1, §2
For assay [8] the target is unchanged. Nature of the assay: SPR (Biacore A100) point-mutant screen at 50 µM peptide.
Protocol: as §1
Using the prepared 96-well plates and Biacore A100 SPR instrument, four peptides were flowed separately, in parallel, through the four flow cells over all 4 TNF-α spots and the neutravidin reference spot, with a 60 second association phase and 300 second dissociation phase. SPR sensorgrams were recorded for each peptide response with all 4 TNF-α spots and the neutravidin reference spot across the four flow cells on the SPR chip. Surface regeneration was performed after every 12 injections in each flow cell with Biacore Glycine 2.5 regeneration solution (GE Healthcare, Piscataway, N.J.). Point-mutant reference subtracted, peptide molecular weight adjusted, responses at the late binding region of the sensorgram (a few seconds before dissociation) were compared to the response of the TNF1 lead
Assay [9] shares this target. As to the kind of experiment: SPR; reference TNF1 lead peptide. This is another data set of the same source.
Protocol: as §1, §2
Assay [10] shares this target. As to the kind of experiment: SPR-derived binding energies.
For assay [11] the target is unchanged. As to the kind of experiment: SPR equilibrium binding (Biacore A100), TNF-α captured on the chip.
The target of assay [12] is T1, transferrin. Nature of the assay: affinity characterisation of Example 29 (SPR; format for the purified peptides not stated).
For assay [13], the target named is T1, transferrin. Nature of the assay: reference TRF26 lead peptide.
The target of assay [14] is T1, transferrin. As to the kind of experiment: SPR (Biacore T100), transferrin immobilised (9758 RU), steady state affinity fit.
Description: Affinity plots were generated for each peptide and fit using a steady state affinity model.
The target in a further assay is T3, Gal80 (UniProt P04387 1-435, limits assumed).
T3 construct: Cy3/Cy5 labelled on arrays, immobilised for SPR and ELISA
T3 sequence (looked up): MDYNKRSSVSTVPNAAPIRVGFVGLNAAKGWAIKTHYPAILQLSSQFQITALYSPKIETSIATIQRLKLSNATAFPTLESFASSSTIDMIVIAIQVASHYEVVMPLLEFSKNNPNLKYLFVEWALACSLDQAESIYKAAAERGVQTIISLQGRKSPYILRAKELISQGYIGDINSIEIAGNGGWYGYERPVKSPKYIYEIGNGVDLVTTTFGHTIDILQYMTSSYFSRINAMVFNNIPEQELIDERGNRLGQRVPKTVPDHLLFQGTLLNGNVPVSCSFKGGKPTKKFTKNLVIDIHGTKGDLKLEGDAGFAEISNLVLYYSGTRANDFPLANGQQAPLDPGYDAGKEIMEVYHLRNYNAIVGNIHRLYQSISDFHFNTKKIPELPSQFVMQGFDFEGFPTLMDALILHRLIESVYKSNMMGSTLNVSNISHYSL
Nature of the assay: SPR, gal80 immobilised on the chip; Kd from on and off rates.

T1 sequence (P02787 20-698 limits assumed): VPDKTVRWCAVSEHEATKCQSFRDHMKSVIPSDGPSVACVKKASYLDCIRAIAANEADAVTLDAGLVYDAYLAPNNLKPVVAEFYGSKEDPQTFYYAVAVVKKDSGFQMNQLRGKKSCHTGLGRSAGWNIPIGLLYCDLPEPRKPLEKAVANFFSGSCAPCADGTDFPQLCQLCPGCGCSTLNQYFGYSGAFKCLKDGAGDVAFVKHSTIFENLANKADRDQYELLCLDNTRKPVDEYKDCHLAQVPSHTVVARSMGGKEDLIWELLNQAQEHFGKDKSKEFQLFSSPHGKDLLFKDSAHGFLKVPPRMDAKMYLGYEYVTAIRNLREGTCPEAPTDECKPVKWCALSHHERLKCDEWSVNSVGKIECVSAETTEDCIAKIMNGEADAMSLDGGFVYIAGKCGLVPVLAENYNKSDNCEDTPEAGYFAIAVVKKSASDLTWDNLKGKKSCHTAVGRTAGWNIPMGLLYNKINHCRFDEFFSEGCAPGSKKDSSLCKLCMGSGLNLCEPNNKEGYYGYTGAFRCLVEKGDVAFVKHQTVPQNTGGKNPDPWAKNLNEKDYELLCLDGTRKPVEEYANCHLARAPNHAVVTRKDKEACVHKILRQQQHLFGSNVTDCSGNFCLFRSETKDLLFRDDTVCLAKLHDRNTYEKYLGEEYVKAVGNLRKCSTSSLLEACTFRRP
T2 sequence (P01375 77-233 limits assumed): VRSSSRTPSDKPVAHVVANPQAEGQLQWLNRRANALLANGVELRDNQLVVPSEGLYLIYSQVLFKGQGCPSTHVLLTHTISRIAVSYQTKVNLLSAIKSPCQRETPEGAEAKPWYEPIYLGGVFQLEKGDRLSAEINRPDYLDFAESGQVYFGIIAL

On to APYAPQQIHYWSTLGFKGSC (20-mer ending GSC) [TRF25], for which the Rank - non-prewash with transferrin [1] worked out at 736 rank. Further, the Kd – broadly, the constant that tells how readily two partners part at equilibrium – with transferrin [2] is roughly 60 µM. The molecule further returned a Rank -- prewash in the assay with transferrin [3] of 603 rank.
In the case of RFQLTQHYAQFWGHYTWGSC (20-mer ending GSC) [TRF28], the Rank - non-prewash with transferrin [1] is 601 rank. Besides, in the assay with transferrin [3], the Rank -- prewash worked out at 712 rank.
Turning to FERSYLKMPWSFLQSRQGSC [TNF1 D4S+P5Y+M7K triple mutant], in assay [4], the Kd came to 14 µM and the “Observed Binding ΔG” value was -27.7 kJ/mol. Besides, in assay [5], the “Kd Fold-Change Relative to Lead” value was 11 fold.
In the case of FERDPLKMPWSFLQSRQGSC [TNF1 M7K point-mutant], in [6], the “Binding ΔG” value is -24.8 kJ/mol and the Kd stood at 57 µM. The “Component Binding ΔG Contribution” value in assay [7] was -3.01 kJ/mol. Moreover, the “fold enhancement in SPR binding response relative to TNF1” value in assay [8] is no less than 15 fold. Further, the “Kd Fold-Change Relative to Lead” value in [9] amounted to 2.8 fold.
In the same order, the values of FERDPLMMPWKFLQSRQGSC [TNF1 S11K point-mutant] are -25.2 kJ/mol, 40 µM, -3.43 kJ/mol, no less than 15 fold and 3.9 fold.
Take FERDYLMMPWSFLQSRQGSC [TNF1 P5Y point-mutant]: in assay [6], the “Binding ΔG” value was -24.2 kJ/mol and the Kd was 58 µM. The “Component Binding ΔG Contribution” value in assay [7] is -2.43 kJ/mol. The “fold enhancement in SPR binding response relative to TNF1” value in [8] is no less than 15 fold. In addition, the “Kd Fold-Change Relative to Lead” value in assay [9] was determined as 2.7 fold.

B1: TNF1 D4S+P5Y+S11K triple mutant (peptide)
peptide: FERSYLMMPWKFLQSRQGSC
notes: also called D4S + P5Y + S1IK (so in the source)
For the molecule B1, the “difference in observed binding energy relative to P5Y+S11K” value in assay [10] was -3.01 kJ/mol. Moreover, in [4], the equilibrium dissociation constant (Kd) was 7 µM and the “Observed Binding ΔG” value is -29.4 kJ/mol. Moreover, the “Kd Fold-Change Relative to Lead” value in assay [5] came to 23 fold. Further, the “Fold Change (Ka mutant / Ka TNF1)” value in [11] was 23 fold.
As to FERDYLMMPWKFLQSRQGSC [TNF1 P5Y+S11K double mutant], in assay [4], the Kd was 24 µM and the “Observed Binding ΔG” value was -27.7 kJ/mol. In addition, the “Kd Fold-Change Relative to Lead” value in assay [5] stood at 6.6 fold.
In the same order, the values of FERYPLKMPWSFLQSRQGSC [TNF1 D4Y+M7K double mutant] are 17 µM, -27.4 kJ/mol and 9.4 fold.
The corresponding values for FERDYLKMPWSFLQSRQGSC [TNF1 P5Y+M7K double mutant] are 27 µM, -26.1 kJ/mol and 5.8 fold.
Take FERYPLMMPWSFLQSRQGSC [TNF1 D4Y point-mutant]: in [6], the “Binding ΔG” value was -24.9 kJ/mol and the Kd was found to be 44 µM. Also, the “Component Binding ΔG Contribution” value in assay [7] is -3.1 kJ/mol. Besides, in assay [8], the “fold enhancement in SPR binding response relative to TNF1” value was no less than 15 fold. Also, the “Kd Fold-Change Relative to Lead” value in assay [9] came to 3.6 fold.

B2: TRF26 (peptide)
peptide: AHKVVPQRQIRHAYNRYGSC
notes: 20-mer ending GSC; also called TRF26 Lead Peptide
Turning to B2, the Rank - non-prewash with transferrin [1] was found to be 596 rank. For the same molecule, in the assay with transferrin [12], the “Binding ΔG” value is -23.3 kJ/mol and binding was characterised by a dissociation constant (Kd) of 85 µM. Besides, the dissociation constant (Kd) with transferrin [2] is roughly 100 µM. The molecule further gave a Rank -- prewash in the assay with transferrin [3] of 436 rank.
Consider AHKVVPQRQIRFAYNRYGSC [TRF26 H12F point-mutant], for which, in the assay with transferrin [13], the “Kd Fold-Change Relative to Lead” value came to 8.8 fold. Besides, in the assay with transferrin [12], the “Binding ΔG” value is -28.7 kJ/mol and the Kd was 9.7 µM.

B3: TBPL025 (peptide)
peptide: GHKVVPQRQMRHAYNRNGSC
notes: Clone from mRNA display on a doped TRF26 library
For B3, in the assay with transferrin [14], binding was characterised by a dissociation constant (Kd) of 150 µM.
On to AHKVVYQRQIRHAYNRYGSC [TRF26 P6Y point-mutant], for which the “Kd Fold-Change Relative to Lead” value in the assay with transferrin [13] worked out at 10 fold. In the assay with transferrin [12], the “Binding ΔG” value is -29 kJ/mol and the dissociation constant (Kd) is 8.6 µM.

B4: TBPL005 (peptide)
peptide: GHKVVPQRQIRHAYNRYGSC
notes: Clone from mRNA display on a doped TRF26 library; synthesised and HPLC purified
The molecule B4 gave a Kd with transferrin [14] of 150 µM.
GQTQFAMHRFQQWYKIKGSC (20-mer ending GSC) [TRF20] came in with a Rank - non-prewash with transferrin [1] of 18 rank. For the same molecule, the Rank -- prewash with transferrin [3] worked out at 289 rank.
As for HAYKGPGDMRRFNHSGMGSC (20-mer ending GSC) [TRF22], the Rank - non-prewash with transferrin [1] worked out at 711 rank. In the assay with transferrin [3], this molecule showed a Rank -- prewash of 61 rank.

B5: BP1 on dsDNA (peptide)
affinity element BP1: GTEKGTSGWLKTGSC
modifications: C-terminal Cys joined through SMCC to the DNA linker
notes: also called BP1 alone conjugated to the double-stranded DNA linker
B5 gave a Kd with Gal80 of 0.482 µM.

B6: BP2 on dsDNA (peptide)
affinity element BP2: EGEWTEGKLSLRGSC
modifications: C-terminal Cys joined through SMCC to the DNA linker
notes: also called BP2 alone conjugated to the double-stranded DNA linker
In the assay with Gal80, B6 gave a Kd of 0.982 µM.
In the case of SVKPWRPLITGNRWLNSGSC (20-mer ending GSC) [TRF24], in the assay with transferrin [1], the Rank - non-prewash was found to be 71 rank. This molecule gave a Kd with transferrin [2] of roughly 50 µM. Besides, in the assay with transferrin [3], the Rank -- prewash was determined as 958 rank.

B7: TRF19 (peptide)
peptide: KEDNPGYSSEQDYNKLDGSC
notes: 20-mer ending GSC; on arrays attached by the C-terminal Cys
In the assay with transferrin [1], B7 returned a Rank - non-prewash of 5010 rank. In the assay with transferrin [2], the Kd is roughly 150 µM. This molecule had a Rank -- prewash with transferrin [3] of 9600 rank.
The corresponding values for QYHHFMNLKRQGRAQAYGSC (20-mer ending GSC) [TRF21] are 84 rank, roughly 60 µM and 5 rank.
As for LDPLFNTSIMVNWHRWMGSC [TRF27], in the assay with transferrin [1], the Rank - non-prewash was found to be 1290 rank. In addition, the Rank -- prewash with transferrin [3] amounted to 3320 rank.
For the molecule FRGWAHIFFGPHVIYRGGSC (20-mer ending GSC) [TRF23], in the assay with transferrin [1], the Rank - non-prewash was determined as 2720 rank. The molecule also returned a Kd in the assay with transferrin [2] of roughly 50 µM. In the assay with transferrin [3], this molecule yielded a Rank -- prewash of 2090 rank.
